pKd: −log10 of the molar value.

The results in this text go back to article PMC13163806.

The test system of data set [1] is eIF3F. The experiment in a line: EMSA. The settings on record: 0.4-2.6 uM protein; fluorescein-12-UTP incorporated about every 20-25 nt; 150 mM NaCl, 20 mM HEPES (pH not stated), 1.5 mM MgCl2, 0.1 mM EDTA, 0.75 mM DTT, 10% glycerol; 2.3 nM labelled RNA; on ice 20 min; 1% native agarose gel.
Data set [2] concerns PDCD4. The experiment in a line: EMSA. The settings on record: 0.2-1.2 uM protein; fluorescein-12-UTP incorporated about every 20-25 nt; 150 mM NaCl, 20 mM HEPES (pH not stated), 1.5 mM MgCl2, 0.1 mM EDTA, 0.75 mM DTT, 10% glycerol; 2.3 nM labelled RNA; on ice 20 min; 1% native agarose gel. (In general: In EMSA bound probe runs differently from free probe, usually more slowly.)

Turning to Bcl-xL IRES RNA, the pKd (as a rule, the negative decadic logarithm of the Kd, by convention in mol/L) in data set [1] was 6.10; in data set [2], 6.40.
